Data: publication PMC10202959, “A superior extracellular matrix binding motif to enhance the regenerative activity and safety of therapeutic proteins” (NPJ Regenerative Medicine, 2023)

B1: platelet-derived growth factor-BB (wild type) (natural protein, UniProt P31240 82-190, looked up)
chain: SLGSLAAAEPAVIAECKTRTEVFQISRNLIDRTNANFLVWPPCVEVQRCSGCCNNRNVQCRASQVQMRPVQVRKIEIVRKKPIFKKATVTLEDHLACKCETIVTPRPVT
notes: platelet-derived growth factor subunit B; also called PDGF-BB; source: bought: Peprotech
B2: human fibrinogen (complex)
chain 1: ADSGEGDFLAEGGGVRGPRVVERHQSACKDSDWPFCSDEDWNYKCPSGCRMKGLIDEVNQDFTNRINKLKNSLFEYQKNNKDSHSLTTNIMEILRGDFSSANNRDNTYNRVSEDLRSRIEVLKRKVIEKVQHIQLLQKNVRAQLVDMKRLEVDIDIKIRSCRGSCSRALAREVDLKDYEDQQKQLEQVIAKDLLPSRDRQHLPLIKMKPVPDLVPGNFKSQLQKVPPEWKALTDMPQMRMELERPGGNEITRGGSTSYGTGSETESPRNPSSAGSWNSGSSGPGSTGNRNPGSSGTGGTATWKPGSSGPGSTGSWNSGSSGTGSTGNQNPGSPRPGSTGTWNPGSSERGSAGHWTSESSVSGSTGQWHSESGSFRPDSPGSGNARPNNPDWGTFEEVSGNVSPGTRREYHTEKLVTSKGDKELRTGKEKVTSGSTTTTRRSCSKTVTKTVIGPDGHKEVTKEVVTSEDGSDCPEAMDLGTLSGIGTLDGFRHRHPDEAAFFDTASTGKTFPGFFSPMLGEFVSETESRGSESGIFTNTKESSSHHPGIAEFPSRGKSSSYSKQFTSSTSYNRGDSTFESKSYKMADEAGSEADHEGTHSTKRGHAKSRPV
chain 2: QGVNDNEEGFFSARGHRPLDKKREEAPSLRPAPPPISGGGYRARPAKAAATQKKVERKAPDAGGCLHADPDLGVLCPTGCQLQEALLQQERPIRNSVDELNNNVEAVSQTSSSSFQYMYLLKDLWQKRQKQVKDNENVVNEYSSELEKHQLYIDETVNSNIPTNLRVLRSILENLRSKIQKLESDVSAQMEYCRTPCTVSCNIPVVSGKECEEIIRKGGETSEMYLIQPDSSVKPYRVYCDMNTENGGWTVIQNRQDGSVDFGRKWDPYKQGFGNVATNTDGKNYCGLPGEYWLGNDKISQLTRMGPTELLIEMEDWKGDKVKAHYGGFTVQNEANKYQISVNKYRGTAGNALMDGASQLMGENRTMTIHNGMFFSTYDRDNDGWLTSDPRKQCSKEDGGGWWYNRCHAANPNGRYYWGGQYTWDMAKHGTDDGVVWMNWKGSWYSMRKMSMKIRPFFPQQ
chain 3: YVATRDNCCILDERFGSYCPTTCGIADFLSTYQTKVDKDLQSLEDILHQVENKTSEVKQLIKAIQLTYNPDESSKPNMIDAATLKSRKMLEEIMKYEASILTHDSSIRYLQEIYNSNNQKIVNLKEKVAQLEAQCQEPCKDTVQIHDITGKDCQDIANKGAKQSGLYFIKPLKANQQFLVYCEIDGSGNGWTVFQKRLDGSVDFKKNWIQYKEGFGHLSPTGTTEFWLGNEKIHLISTQSAIPYALRVELEDWNGRTSTADYAMFKVGPEADKYRLTYAYFAGGDAGDAFDGFDFGDDPSDKFFTSHNGMQFSTWDNDNDKFEGNCAEQDGSGWWMNKCHAGHLNGVYYQGGTYSKASTPNGYDNGIIWATWKTRWYSMKKTTMKIIPFNRLTIGEGQQHHLGGAKQAGDV
modifications: Plasma-derived disulfide-linked hexamer (alpha-beta-gamma)2, fibrinopeptides A and B retained, N-glycosylated. Isoforms are not printed: the major plasma forms are taken by convention, i.e. the …
B3: amphiregulin (natural protein, human, UniProt P15514 101-187, looked up)
chain: SVRVEQVVKPPQNKTESENTSDKPKRKKKGGKNGKNRRNRKKKNPCNAEFQNFCIHGECKYIEHLEAVTCKCQQEYFGERCGEKSMK
notes: amphiregulin; it is a soluble form, not the 252 aa precursor (surmise); also called AREG; source: bought: Peprotech (carrier-free recombinant)
B4: placenta growth factor-2 (natural protein, human, UniProt P49763-3 19-170, looked up)
chain: LPAVPPQQWALSAGNGSSEVEVVPFQEVWGRSYCRALERLVDVVSEYPSEVEHMFSPSCVSLLRCTGCCGDENLHCVPVETANVTMQLLKIRSGDRPSYVELTFSQHVRCECRPLREKMKPERRRPKGRGKRRREKQRPTDCHLCGDAVPRR
notes: placenta growth factor, PlGF-2; also called PlGF; PlGF-2; source: bought: Peprotech (carrier-free recombinant)
B5: neurturin (natural protein, human, UniProt Q99748 96-197, looked up)
chain: ARLGARPCGLRELEVRVSELGLGYASDETVLFRYCAGACEAAARVYDLGLRRLRQRRRLRRERVRAQPCCRPTAYEDEVSFLDAHSRYHTVHELSARECACV
notes: neurturin; also called NRTN; source: bought: Peprotech (carrier-free recombinant)
B6: interleukin-1 receptor antagonist (wild type) (natural protein, UniProt P25085 27-178, looked up)
chain: RPSGKRPCKMQAFRIWDTNQKTFYLRNNQLIAGYLQGPNIKLEEKIDMVPIDLHSVFLGIHGGKLCLSCAKSGDDIKLQLEEVNITDLSKNKEEDKRFTFIRSEKGPTTSFESAACPGWFLCTTLEADRPVSLTNTPEEPLIVTKFYFQEDQ
notes: interleukin-1 receptor antagonist protein; also called IL-1Ra; source: bought: Peprotech

Assays:
Settings in all cases: both partners purified
human vitronectin [1] = biological target: T1, human vitronectin (human, UniProt P04004 20-478); assay: ELISA; plates coated with 100 nM ECM protein in PBS (1 h, 37 °C), blocked with 1% BSA in PBS-T; PDGF-BB or IL-1Ra variants at increasing concentrations in PBS-T with 0.1% BSA, 1 h at room temperature; detected with biotinylated antibodies; one site specific binding model; n = 3
T1 construct: vitronectin, human; source: bought: Peprotech

human tenascin C [2] = biological target: T2, human tenascin C (human, UniProt P24821 23-2201); assay: as above
T2 construct: tenascin C, human; also called Tenacin C; source: bought: R&D Systems

human plasma fibronectin [3] = biological target: human plasma fibronectin (human); assay: as above
human fibrinogen [4] = biological target: B2; assay: as above
Target sequence in this assay (P02671 36-866): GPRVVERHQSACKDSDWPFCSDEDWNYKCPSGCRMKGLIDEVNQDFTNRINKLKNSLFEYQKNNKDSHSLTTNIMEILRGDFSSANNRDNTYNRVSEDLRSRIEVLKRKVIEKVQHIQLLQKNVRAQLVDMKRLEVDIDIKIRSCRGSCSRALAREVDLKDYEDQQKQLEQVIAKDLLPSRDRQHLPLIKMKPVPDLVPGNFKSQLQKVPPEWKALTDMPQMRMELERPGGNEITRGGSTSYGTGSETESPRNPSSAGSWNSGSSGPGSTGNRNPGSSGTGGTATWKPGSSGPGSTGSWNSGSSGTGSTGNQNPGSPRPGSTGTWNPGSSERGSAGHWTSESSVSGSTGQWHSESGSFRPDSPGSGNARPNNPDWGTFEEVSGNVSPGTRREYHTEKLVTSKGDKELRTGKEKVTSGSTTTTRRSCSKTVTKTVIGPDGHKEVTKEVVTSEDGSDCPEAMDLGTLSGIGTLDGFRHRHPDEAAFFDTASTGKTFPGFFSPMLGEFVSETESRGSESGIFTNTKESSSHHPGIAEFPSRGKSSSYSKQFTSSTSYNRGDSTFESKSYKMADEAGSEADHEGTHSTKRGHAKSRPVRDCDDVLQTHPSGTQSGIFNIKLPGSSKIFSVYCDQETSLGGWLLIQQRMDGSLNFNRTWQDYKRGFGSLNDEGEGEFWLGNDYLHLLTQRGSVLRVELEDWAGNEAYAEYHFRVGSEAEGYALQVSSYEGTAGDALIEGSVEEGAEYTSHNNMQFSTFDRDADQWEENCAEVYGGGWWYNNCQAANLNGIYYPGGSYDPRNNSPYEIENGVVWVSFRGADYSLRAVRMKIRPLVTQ

AREG26-38/IL-1Ra = biological target: T3, AREG26-38/IL-1Ra (human | ); assay: as above
T3 construct: interleukin-1 receptor antagonist protein; Both the His tag and AREG26-38 are said to stand at the N-terminus; also called AREG126-138/IL-1Ra; engineered IL-1Ra; source: E. coli BL21 (DE3), pET-22b, soluble fraction, purified (Ni column)

AREG26-38/PDGF-BB = biological target: T4, AREG26-38/PDGF-BB (human | ); assay: as above
T4 construct: platelet-derived growth factor subunit B; AREG26-38 at the N-terminus of PDGF-B; also called AREG126-138/PDGF-BB; engineered PDGF-BB

human vitronectin [5] = biological target: T1, human vitronectin; assay: ELISA; plates coated with 100 nM PlGF-2, AREG or NRTN (1 h, 37 °C), blocked with 1% BSA in PBS-T; ECM proteins at increasing concentration in PBS-T with 0.1% BSA; bound ECM protein detected with HRP-conjugated antibodies; one site specific binding model; n = 3
human tenascin C [6] = biological target: T2, human tenascin C; assay: as above
human plasma fibronectin [7] = biological target: human plasma fibronectin (human); assay: as above
human fibrinogen [8] = biological target: B2; assay: as above

T2 sequence (P24821 23-2201): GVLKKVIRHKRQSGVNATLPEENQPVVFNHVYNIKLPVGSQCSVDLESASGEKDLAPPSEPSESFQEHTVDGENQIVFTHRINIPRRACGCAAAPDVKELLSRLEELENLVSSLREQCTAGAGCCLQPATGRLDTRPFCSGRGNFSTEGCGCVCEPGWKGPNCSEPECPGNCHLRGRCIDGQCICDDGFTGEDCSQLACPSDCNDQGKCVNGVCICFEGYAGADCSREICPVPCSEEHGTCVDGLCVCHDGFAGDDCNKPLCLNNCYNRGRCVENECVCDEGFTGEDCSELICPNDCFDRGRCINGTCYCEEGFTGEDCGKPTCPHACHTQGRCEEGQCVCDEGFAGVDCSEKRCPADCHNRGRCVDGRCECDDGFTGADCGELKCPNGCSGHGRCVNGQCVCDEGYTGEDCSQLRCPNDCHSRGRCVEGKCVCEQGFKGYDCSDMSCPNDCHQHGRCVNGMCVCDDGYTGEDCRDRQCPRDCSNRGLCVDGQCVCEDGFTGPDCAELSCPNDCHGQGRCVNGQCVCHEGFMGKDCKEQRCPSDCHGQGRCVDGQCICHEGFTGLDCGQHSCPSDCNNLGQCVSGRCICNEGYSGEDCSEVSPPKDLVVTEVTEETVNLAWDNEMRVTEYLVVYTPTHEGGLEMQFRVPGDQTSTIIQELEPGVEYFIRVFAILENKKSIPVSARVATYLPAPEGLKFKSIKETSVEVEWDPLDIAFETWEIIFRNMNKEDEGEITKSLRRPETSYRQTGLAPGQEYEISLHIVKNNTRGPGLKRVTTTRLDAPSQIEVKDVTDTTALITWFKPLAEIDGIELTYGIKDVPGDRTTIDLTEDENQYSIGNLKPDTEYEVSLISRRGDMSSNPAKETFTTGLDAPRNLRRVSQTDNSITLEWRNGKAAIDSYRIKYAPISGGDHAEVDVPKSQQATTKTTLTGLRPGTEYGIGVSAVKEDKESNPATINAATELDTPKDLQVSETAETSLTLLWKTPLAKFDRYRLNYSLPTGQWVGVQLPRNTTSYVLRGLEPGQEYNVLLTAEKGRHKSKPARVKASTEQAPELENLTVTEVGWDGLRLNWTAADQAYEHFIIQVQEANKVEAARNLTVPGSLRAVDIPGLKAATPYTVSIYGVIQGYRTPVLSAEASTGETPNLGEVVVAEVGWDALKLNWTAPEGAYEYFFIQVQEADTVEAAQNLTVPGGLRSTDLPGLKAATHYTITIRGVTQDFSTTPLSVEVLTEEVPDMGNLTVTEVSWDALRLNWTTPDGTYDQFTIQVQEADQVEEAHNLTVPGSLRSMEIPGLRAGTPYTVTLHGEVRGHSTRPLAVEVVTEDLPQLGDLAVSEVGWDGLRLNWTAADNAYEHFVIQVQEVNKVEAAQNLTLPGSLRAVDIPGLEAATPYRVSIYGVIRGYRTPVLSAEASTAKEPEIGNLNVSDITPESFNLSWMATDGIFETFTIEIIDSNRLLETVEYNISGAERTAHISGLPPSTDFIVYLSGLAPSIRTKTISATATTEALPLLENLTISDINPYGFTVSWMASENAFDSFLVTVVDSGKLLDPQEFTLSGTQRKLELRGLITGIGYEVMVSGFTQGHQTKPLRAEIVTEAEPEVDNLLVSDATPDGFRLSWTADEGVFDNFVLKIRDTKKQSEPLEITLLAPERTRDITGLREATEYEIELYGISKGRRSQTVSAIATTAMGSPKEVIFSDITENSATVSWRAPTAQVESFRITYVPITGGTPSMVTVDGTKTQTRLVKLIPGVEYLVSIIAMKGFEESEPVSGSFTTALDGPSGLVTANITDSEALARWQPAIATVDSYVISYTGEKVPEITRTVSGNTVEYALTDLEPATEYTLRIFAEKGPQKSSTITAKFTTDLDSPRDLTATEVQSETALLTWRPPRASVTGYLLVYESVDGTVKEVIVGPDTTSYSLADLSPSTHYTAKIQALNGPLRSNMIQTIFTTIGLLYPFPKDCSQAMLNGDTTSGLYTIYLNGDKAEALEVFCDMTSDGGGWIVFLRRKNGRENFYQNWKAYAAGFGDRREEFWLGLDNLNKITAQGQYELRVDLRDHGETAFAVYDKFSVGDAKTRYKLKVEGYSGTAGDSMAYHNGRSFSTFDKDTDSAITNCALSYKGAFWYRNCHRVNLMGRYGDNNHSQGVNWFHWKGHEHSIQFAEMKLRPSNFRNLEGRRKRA
T1 sequence (P04004 20-478): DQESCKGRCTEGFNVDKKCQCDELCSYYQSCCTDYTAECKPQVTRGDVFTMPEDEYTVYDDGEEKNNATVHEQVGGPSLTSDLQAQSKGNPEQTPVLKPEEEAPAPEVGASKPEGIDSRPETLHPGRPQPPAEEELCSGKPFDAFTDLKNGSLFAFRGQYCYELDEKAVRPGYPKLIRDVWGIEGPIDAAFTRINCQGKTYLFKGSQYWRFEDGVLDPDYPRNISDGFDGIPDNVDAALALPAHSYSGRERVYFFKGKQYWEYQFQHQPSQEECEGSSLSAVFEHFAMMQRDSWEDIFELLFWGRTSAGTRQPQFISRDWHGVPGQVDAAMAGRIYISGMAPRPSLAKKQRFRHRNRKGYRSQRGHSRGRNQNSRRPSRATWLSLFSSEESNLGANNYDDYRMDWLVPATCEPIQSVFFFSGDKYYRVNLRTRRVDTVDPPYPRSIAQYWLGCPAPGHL
T3 sequence (P02671 36-866): as the sequence (P02671 36-866) above
T4 sequence (P02671 36-866): as above

Binder	Kd (human vitronectin [1]) [nM]	Kd (human tenascin C [2]) [nM]	Kd (human plasma fibronectin [3]) [nM]	Kd (human fibrinogen [4]) [nM]	Kd (AREG26-38/IL-1Ra) [nM]	Kd (AREG26-38/PDGF-BB) [nM]	Kd (human vitronectin [5]) [nM]	Kd (human tenascin C [6]) [nM]	Kd (human plasma fibronectin [7]) [nM]	Kd (human fibrinogen [8]) [nM]
B1	29.7	87.8	74.2	210	–	–	–	–	–	–
B2	–	–	–	–	16.9	13.9	–	–	–	–
B3	–	–	–	–	–	–	9.3	11	8.9	7.4
B4	–	–	–	–	–	–	13.2	79.4	17.2	14.1
B5	–	–	–	–	–	–	53.1	55.7	79.4	390
B6	96.5	137	153	640	–	–	–	–	–	–
